System: Bacillus subtilis
Assay: cleaved RNA product abundance (RNA/gDNA barcode ratio) relative to median wild-type variant (ratio to wild type); higher = more accumulation of the downstream cleavage product
Outline: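 B. subtilis strains with chromosomally integrated reporter mRNAs (truncated aprE or tetM) holding barcoded, mutagenized RNase Y cleavage-site windows grew in LB at 37°C from OD600 0.0003 to 0.3. Cleaved product abundance is each construct's RNA:gDNA barcode ratio, scaled to the median construct with the unmutated site. It came from sequencing barcodes of gel-selected, reverse-transcribed cleaved RNA and of genomic DNA.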

[1] = experiment (reporter, strain, medium): exp 2b: truncated aprE reporter, strain BJT200, cleavage site: cggR-gapA (positions -7 to +36 mutated)
[2] = experiment (reporter, strain, medium): exp 4a: truncated aprE reporter, strain BJT201 with 2% xylose (RNase J1 expressed), cleavage site: cggR-gapA (positions -7 to +36 mutated)
[3] = experiment (reporter, strain, medium): exp 6: tetM reporter, strain 168, cleavage site: cggR-gapA (positions -7 to +36 mutated)
[4] = experiment (reporter, strain, medium): exp 8a: truncated aprE reporter, strain BJT201 with 2% xylose (RNase J1 expressed), cleavage site: glnRA (positions -5 to +31 mutated)

| Sequence | cleaved RNA product abundance [1] | cleaved RNA product abundance [2] | other results |
| --- | --- | --- | --- |
| ACAGACGAAGGAGCCGCAAAGAAGTTATAAAGGGATGAATAATCCCTCAATATATATATCTCTCACTTATTTAAA | 0.359 | 0.58 |  |
| ACAGACGAAGGAGCCGCAAAGAAGTTATTAAGGGATGAATAATCCATCCATATAAATATCTCTCACTTATTTAAA |  | 0.222 |  |
| ACAGACGAAGGAGCCGCAAAGAAGTTATTAAGAGATGAATAATCCCTCAATATAATTATCTCTCACTTATTTAAA |  | 0.118 |  |
| ACAGACGAAGGAGCCGCAAAGAAGTTATTAAGGGATGAATACTCCCTCAATATAAATATCTCTCACTTATTTAAA | 0.565 | 0.732 | cleaved RNA product abundance [3]: 0.566 |
| ACAGACGAAGGAGCCGCAAAGAAGTTATCAAGGGATGAATAATCCCTCATTATAAATATCTCTCACTTATTTAAA | 0.216 |  |  |
| ACAGACGAAGGAGCCGCAAAGAAGTTATTAAGGGCTGTATAATCCCTCAATATAAATATCTCTCACTTATTTAAA |  | 0.54 |  |
| ACAGACGAAGGAGCCGCAAAGAAGTCATTAAGGGATGATTAATCCCTCAATATAAATATCTCTCACTTATTTAAA |  | 0.217 |  |
| CGACATGTCCCGCTTCTTTCATTATTCCGTTAGCGACTGTTTTGCTATATACATTTACCTTTTAAGAGGAGGAAT |  |  | cleaved RNA product abundance [4]: 0.759 |
| ACAGACGAAGGAGCCGCAAATAAGTTATTAAGGGATGAATAATCCCTCACTATAAATATCTCTCACTTATTTAAA | 0.193 | 0.218 |  |
| ACAGACGAAGGAGCCGCAAAGAAGTTATTAAGGGATGAATAATCCATAAATATAAATATCTCTCACTTATTTAAA | 0.17 | 0.261 |  |
| ACAGACGAAGGAGCCGCAAGGAAGCTATTAAGGGATGAATAATCCCTCAATATAAATATCTCTCACTTATTTAAA | 0.644 |  |  |
| ACAGACGAAGGAGCCGCAAAGAAGTTATAAAGGGATGAATAATCCCTGAATATAAATATCTCTCACTTATTTAAA |  | 0.634 |  |
| ACAGACGAAGGAGCCGCAAAGAAGTTTTTAAGGAATGAATAATCCCTCAATATAAATATCTCTCACTTATTTAAA | 0.0825 | 0.163 |  |
| ACAGACGAAGGAGCCGCAAAGAAGCTATTAAGGGATGAATACTCCCTCAATATAAATATCTCTCACTTATTTAAA |  | 0.458 |  |
| ACAGACGAAGGAGCCGCAAACAAGTGATTAAGGGATGAATAATCCCTCAATATAAATATCTCTCACTTATTTAAA | 0.223 | 0.27 |  |
| ACAGACGAAGGAGCCGCAAAGAAGTTATTAAGGGATGAATAATCGCTCAATGTAAATATCTCTCACTTATTTAAA |  | 0.048 |  |
| CGACATGTCCCGCTTCTTTCATTACTCCGTTAGCAACTGTTTTGCTATATACATTGACCTTTTAAGAGGAGGAAT |  |  | cleaved RNA product abundance [4]: 1.16 |
| ACAGACGAAGGAGCCGCAAAGAAGTTATTAAGGGATGAATACTCTCTCAATATAAATATCTCTCACTTATTTAAA |  | 0.226 |  |
| ACAGACGAAGGAGCCGCAAAGAACTTATTAATGGATGAATAATCCCTCAATATAAATATCTCTCACTTATTTAAA | 0.102 | 0.142 |  |
| CGACATGTCCCGCTTCTTTCATTAATCCGTTAGCAAGTGTTTTGCTATATTCATTTACCTTTTAAGAGGAGGAAT |  |  | cleaved RNA product abundance [4]: 0.488 |

| Sequence | cleaved RNA product abundance [1] | cleaved RNA product abundance [2] | other results |
| --- | --- | --- | --- |
| ACAGACGAAGGAGCCGCAAAGAAGTTATTAAAGGATGAATAATCCCTCAACATAAATATCTCTCACTTATTTAAA |  | 0.265 |  |
| ACAGACGAAGGAGCCGCAAAGAAGTTATTAAGGGATGAATAATTCCTCAATATAATTATCTCTCACTTATTTAAA | 0.298 | 0.254 |  |
| ACAGACGAAGGAGCCGCAAAGAAGTTATTTAGGGATGAATCATCCCTCAATATAAATATCTCTCACTTATTTAAA |  | 0.542 |  |
| ACAGACGAAGGAGCCGCAAAGAACTTATTAAGGGATGAATAATTCATCAATATAAATATCTCTCACTTATTTAAA |  | 0.372 |  |
| ACAGACGAAGGAGCCGCAAAGAAGTCATTAAGGGATGAATAATCCCTCAATATAAATAACTCTCACTTATTTAAA |  | 0.249 |  |
| ACAGACGAAGGAGCCGCAAGAAGTTATTAAGGGATTAATAATCCCTCAATATAAATATCTCTCACTTATTTAAAG |  | 0.71 |  |
| ACAGACGAAGGAGCCGCAAACAAGTTATTAAGGGATGAATAATCCATCAATATAAATATCTCTCACTTATTTAAA | 0.182 | 0.192 |  |
| CGACATGTCCCGCTTCTTTCATTAATCCGTCAGCAACTGTTTTGTTATATACATTTACCTTTTAAGAGGAGGAAT |  |  | cleaved RNA product abundance [4]: 0.485 |
| ACAGACGAAGGAGCCGCAAAGAAGTTATTAAGGTATGAATAATCCCTCAACATAAATATCTCTCACTTATTTAAA |  | 0.11 |  |
| ACAGACGAAGGAGCCGCAAAGAAGTTATTAAGGGATGAATAATCCCTCAATATAAATTACTCTCACTTATTTAAA |  | 0.951 |  |
| ACAGACGAAGGAGCCGCAAAGACGTTATTAACGGATGAATAATCCCTCAATATAAATATCTCTCACTTATTTAAA |  | 0.165 |  |
| ACAGACGAAGGAGCCGCAAAGAAGTTATTAAGGGATGAATAATCTCTAAATATAAATATCTCTCACTTATTTAAA | 0.627 | 0.558 |  |
| CGACATGTCCCGCTTCTTTCATTAATCCGTTAGCAACTGTTTGGCTATAAACATTTACCTTTTAAGAGGAGGAAT |  |  | cleaved RNA product abundance [4]: 0.327 |
| ACAGACGAAGGAGCCGCAAAGAAGTTATTAAGGGATGTATAATCCCTCCATATAAATATCTCTCACTTATTTAAA | 0.162 |  |  |
| CGACATGTCCCGCTTCTTTCATTAATCCGTTACCAACTGATTTGCTATATACATTTACCTTTTAAGAGGAGGAAT |  |  | cleaved RNA product abundance [4]: 0.205 |
| ACAGACGAAGGAGCCGCAAAGAAGTTATTAAGGGATAAATAATCCCTCAATATAAATATCTCTCACTTATTTAAA | 0.898 | 0.872 | cleaved RNA product abundance [3]: 0.954 |
| ACAGACGAAGGAGCCGCATAGAAGTTATTAAGGGATGAATAATCCCTCAATTTAAATATCTCTCACTTATTTAAA | 0.195 |  |  |
| CGACATGTCCCGCTTCTTTCATTAATCCGTTAGCAACTGTTTTGCTATATGCATTTACCTTTTAAGAGGAGGAAT |  |  | cleaved RNA product abundance [4]: 0.239 |
| ACAGACGAAGGAGCCGCAAAGAACTTATTAAGGGATGAATAATCCCTGAATATAAATATCTCTCACTTATTTAAA | 0.264 | 0.213 |  |
| ACAGACGAAGGAGCCGCAACGAAGTTATTAAGGGATGAATAATCCCTCAACATAAATATCTCTCACTTATTTAAA |  | 0.447 |  |

| Sequence | cleaved RNA product abundance [1] | cleaved RNA product abundance [2] | other results |
| --- | --- | --- | --- |
| ACAGACGAAGGAGCCGCAAAGAAGTTATTAAGGGATGAATAATCCCTCTATATAAACATCTCTCACTTATTTAAA | 0.362 |  |  |
| ACAGACGAAGGAGCCGCAAAGAAGTTATTAAGGGAGCAATAATCCCTCAATATAAATATCTCTCACTTATTTAAA |  | 0.631 |  |
| ACAGACGAAGGAGCCGCAAAGAAGCTATTAAGGGATGTATAATCCCTCAATATAAATATCTCTCACTTATTTAAA |  | 0.576 |  |
| ACAGACGAAGGAGCCGCAAGGAAGTTATTAAGGGATGAATAATTCCTCAATATAAATATCTCTCACTTATTTAAA |  | 0.793 |  |
| ACAGACGAAGGAGCCGCAAAGAAGTGATTAAGGGATGAATAATCCCTCACTATAAATATCTCTCACTTATTTAAA |  | 0.0759 |  |
| ACAGACGAAGGAGCCGCAAAGAAATTATTAAGGGATGACTAATCCCTCAATATAAATATCTCTCACTTATTTAAA | 0.453 | 0.573 |  |
| ACAGACGAAGGAGCCGCAAATAAGTTATTAAGGGATGAATAATGCCTCAATATAAATATCTCTCACTTATTTAAA |  | 0.145 |  |
| ACAGACGAAGGAGCCGCAAGGAAGTTATTAAGGGATGAATAATCCCTCAATATAAAAATCTCTCACTTATTTAAA |  | 0.35 |  |
| CGACATGTCCCGCTTCTTTCATTAATCAGTTAGCAACTGTTTTGCTATATACATTTACATTTTAAGAGGAGGAAT |  |  | cleaved RNA product abundance [4]: 0.595 |
| ACAGACGAAGGAGCCGCAAACAAGTTATTAAGGGATGAATAATCCCTCAAGATAAATATCTCTCACTTATTTAAA | 0.17 |  |  |
| ACAGACGAAGGAGCCGCAAAGAAGTTATTCAGGGATGAATAATCCCTCAATATAAAAATCTCTCACTTATTTAAA |  | 0.461 |  |
| CGACATGTCCCGCTTCTTTCATTAATCCGTTAGCATCTTTTTTGCTATATACATTTACCTTTTAAGAGGAGGAAT |  |  | cleaved RNA product abundance [4]: 0.995 |
| ACAGACGAAGGAGCCGCAAAGAAGTTTTTATGGGATGAATAATCCCTCAATATAAATATCTCTCACTTATTTAAA |  | 0.323 |  |
| ACAGACGAAGGAGCCGCAAAGAAGTTATTAAGGGATGAATAATACCTCGATATAAATATCTCTCACTTATTTAAA | 0.0828 | 0.103 |  |
| CGACATGTCCCGCTTCTTTCATTAATCCGTTAGCAACTGTTTTGCCATATACATTTACGTTTTAAGAGGAGGAAT |  |  | cleaved RNA product abundance [4]: 0.6 |
| ACAGACGAAGGAGCCGCAAAGAAGTTATTAAGTGATGAATATTCCCTCAATATAAATATCTCTCACTTATTTAAA |  | 0.102 |  |
| ACAGACGAAGGAGCCGCAAAGAAGTTAATAAGGGATGAATAATACCTCAATATAAATATCTCTCACTTATTTAAA | 0.0994 | 0.144 |  |
| CGACATGTCCCGCTTCTTTCATTAATACGTTAGCAACTGTTTTGCTATATACATTTACTTTTTAAGAGGAGGAAT |  |  | cleaved RNA product abundance [4]: 0.472 |
| ACAGACGAAGGAGCCGCAAAGAAGTTATTAAGGGACGAATAACCCCTCAATATAAATATCTCTCACTTATTTAAA |  | 0.19 |  |
| CGACATGTCCCGCTTCTTTCATTATTCCGATATCAATTGTTTCGCTATATACATTTACCTTTTAAGAGGAGGAAT |  |  | cleaved RNA product abundance [4]: 0.147 |

From the supplement of paper PMC11780869
